Measured values taken from patent publication US20210355220A1 (TIKCRO TECHNOLOGIES, published 2021).

Columns and labels:
[1] = target: T1, Mouse (Mus musculus) CTLA-4 on HEK293 cells (Mus musculus, UniProt P09793 36-223); test: flow cytometry on HEK293 cells transiently expressing mouse CTLA-4, reference ipilimumab
T1 construct: whole, on cells; also called mouse CTLA-4
Procedure: Macaque (Macaca fascicularis), pig (Sus scrofa) and mouse (Mus musculus) CTLA-4 proteins were transiently expressed on the surface of HEK293 cells. […] Binding was measured using FACS and analyzed.

[2] = target: T2, human CTLA-4 expressed on cells (human, UniProt P16410 36-223); test: flow cytometry, inhibition of CD86-mFC binding to HEK293-hCTLA-4 cells, reference tremelimumab
T2 construct: whole, on cells; On stably or transiently transfected HEK293 cells; also called hCTLA-4; HEK293-hCTLA-4 cells
Procedure: (§1) As part of their activity, CTLA-4 therapeutic antibodies block the interaction between CTLA-4 and its ligands, leaving the ligands free for CD28 binding. […] First, HEK293-hCTLA-4 cells were incubated with the tested antibodies in a serial dilution for 30 minutes. […] The fluorescence was measured and analyzed. The experiment was performed in triplicate and is representative of three biological repeats.

[3] = target: T2, human CTLA-4 expressed on cells; test: flow cytometry, inhibition of CD80-mFC binding to HEK293-hCTLA-4 cells, reference ipilimumab
Procedure: as §1

[4] = target: T3, Recombinant human CTLA-4-his (Sino Biologicals, 11159-H08H) (human, UniProt P16410 36-162); test: ELISA, plate coated with non-reduced CTLA-4-his (dimer), anti-human-HRP, OD450; the box beside the curves does not name the quantity, the value lies at the half-maximal point of the curve (OD450 0.2 to 1.4)
T3 construct: Bought protein; also called dimer hCTLA-4; not shown: his tag
Procedure: hCTLA-4 can exist in monomer and dimer forms on the cell surface. […] The recombinant protein was incubated for 10 minutes with 100 mM DTT to reduce the protein to its monomeric form. […] The plates were coated overnight at 4° C., followed by a wash step and blocking with 20% milk for 1 hour at 37° C. […] The plate was washed and a secondary anti-human-HRP antibody (Jackson) was added at a 1:5000 dilution. A TMB solution was added, followed by stop solution and the OD at 450 nm was measured. Data was analyzed with Prism software.

hPD1 on HEK293 cells = target: T4, hPD1 on HEK293 cells (human, UniProt Q15116 25-288); test: flow cytometry on transfected HEK293 cells
T4 construct: whole, on cells
Procedure: (§2) HEK293 cells were transfected with expression vectors of the following immune-related proteins: hBTLA, hICOS, hCD28, hPDL1, hPD1, hPDL2, and hCTLA-4. Over-expression of the proteins was verified using commercial antibodies against each target. […] Antibody binding to cells was then detected using flow cytometry. Cells that were incubated only with the secondary antibody were used as a background control. […] Note that “+” indicates binding above the background level and “-” indicate no binding as compared to the background level.

hPDL1 on HEK293 cells = target: T5, hPDL1 on HEK293 cells (human, UniProt Q9NZQ7 19-290); test: flow cytometry on transfected HEK293 cells
T5 construct: whole, on cells
Procedure: as §2

hBTLA on HEK293 cells = target: T6, hBTLA on HEK293 cells (human, UniProt Q7Z6A9 31-289); test: flow cytometry on transfected HEK293 cells
T6 construct: whole, on cells
Procedure: as §2

hCD28 on HEK293 cells = target: T7, hCD28 on HEK293 cells (human, UniProt P10747 19-220); test: flow cytometry on transfected HEK293 cells
T7 construct: whole, on cells
Procedure: as §2

hICOS on HEK293 cells = target: T8, hICOS on HEK293 cells (human, UniProt Q9Y6W8 21-199); test: flow cytometry on transfected HEK293 cells
T8 construct: whole, on cells
T8 sequence (looked up): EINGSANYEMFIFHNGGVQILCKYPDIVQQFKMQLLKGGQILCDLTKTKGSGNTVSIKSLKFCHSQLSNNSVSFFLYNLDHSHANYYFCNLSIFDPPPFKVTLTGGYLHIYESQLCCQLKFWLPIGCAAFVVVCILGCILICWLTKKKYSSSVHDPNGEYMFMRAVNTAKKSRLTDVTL
Procedure: as §2

[5] = target: T2, human CTLA-4 expressed on cells; test: flow cytometry on transfected HEK293 cells
Procedure: as §2

hPDL2 on HEK293 cells = target: T9, hPDL2 on HEK293 cells (human, UniProt Q9BQ51 20-273); test: flow cytometry on transfected HEK293 cells
T9 construct: whole, on cells
T9 sequence (looked up): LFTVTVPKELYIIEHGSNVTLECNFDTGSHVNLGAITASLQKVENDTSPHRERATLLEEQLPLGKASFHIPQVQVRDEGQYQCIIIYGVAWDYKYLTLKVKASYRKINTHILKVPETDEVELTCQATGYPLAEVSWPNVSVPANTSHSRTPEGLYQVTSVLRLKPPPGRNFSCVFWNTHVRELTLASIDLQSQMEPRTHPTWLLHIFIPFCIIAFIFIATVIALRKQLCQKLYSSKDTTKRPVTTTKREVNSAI
Procedure: as §2

[6] = target: T2, human CTLA-4 expressed on cells; test: flow cytometry, inhibition of CD80-mFC binding to HEK293-hCTLA-4 cells
Procedure: as §1

[7] = target: T2, human CTLA-4 expressed on cells; test: cell-based or functional assay
[8] = target: T3, Recombinant human CTLA-4-his (Sino …); test: SPR (Biacore T100), reference ipilimumab
Procedure: Recombinant human CTLA-4-his (Sino Biologicals, 11159-H08H) was added in a serial 2-fold dilution, starting at a concentration of 500nM. […] The measurement was corrected using the baseline channel and the protein-antibody interaction was measured by the change in surface resonance and quantified with Biacore T100 control software (version 2.0.4).

[9] = target: T2, human CTLA-4 expressed on cells; test: flow cytometry, inhibition of CD86-mFC binding to HEK293-hCTLA-4 cells, reference ipilimumab
Procedure: as §1

[10] = target: T2, human CTLA-4 expressed on cells; test: flow cytometry, inhibition of CD86-mFC binding to HEK293-hCTLA-4 cells
Procedure: as §1

T3 sequence (P16410 36-162 limits assumed): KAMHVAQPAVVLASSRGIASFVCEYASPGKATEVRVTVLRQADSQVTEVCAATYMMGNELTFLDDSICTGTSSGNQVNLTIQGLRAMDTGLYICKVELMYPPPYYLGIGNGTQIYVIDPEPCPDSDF
T2 sequence (P16410 36-223): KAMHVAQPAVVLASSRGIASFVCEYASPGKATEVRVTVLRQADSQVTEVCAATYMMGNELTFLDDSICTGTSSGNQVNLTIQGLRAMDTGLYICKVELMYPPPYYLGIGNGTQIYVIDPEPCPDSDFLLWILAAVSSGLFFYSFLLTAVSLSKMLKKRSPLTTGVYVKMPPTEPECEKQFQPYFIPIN
T4 sequence (Q15116 25-288): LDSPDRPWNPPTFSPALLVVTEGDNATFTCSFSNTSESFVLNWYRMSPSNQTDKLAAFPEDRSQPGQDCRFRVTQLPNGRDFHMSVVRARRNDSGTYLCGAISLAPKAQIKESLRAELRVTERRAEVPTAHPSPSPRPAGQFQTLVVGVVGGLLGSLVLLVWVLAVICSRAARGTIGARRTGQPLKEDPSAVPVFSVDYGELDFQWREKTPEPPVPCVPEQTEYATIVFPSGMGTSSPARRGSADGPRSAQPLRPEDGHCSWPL
T5 sequence (Q9NZQ7 19-290): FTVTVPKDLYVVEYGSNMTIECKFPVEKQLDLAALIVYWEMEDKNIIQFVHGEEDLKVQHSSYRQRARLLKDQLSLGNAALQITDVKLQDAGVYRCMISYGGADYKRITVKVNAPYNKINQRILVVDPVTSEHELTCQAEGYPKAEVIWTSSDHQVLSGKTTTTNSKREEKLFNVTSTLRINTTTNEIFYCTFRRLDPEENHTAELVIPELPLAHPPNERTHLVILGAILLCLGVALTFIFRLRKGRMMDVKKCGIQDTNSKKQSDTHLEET

Ratio Ipilimumab:Ab55h of EC50 [1]: 0.18 fold
Ratio Tremelimumab:Ab55h of IC50 [2]: 2.8 fold
Ratio Ipilimumab:Ab55h of IC50 [3]: 3 fold
EC50 [4]: 0.008 nM
MFI (hPD1 on HEK293 cells): 72 MFI
binding result (hPD1 on HEK293 cells): no binding
MFI (hPDL1 on HEK293 cells): 69 MFI
binding result (hPDL1 on HEK293 cells): no binding
MFI (hBTLA on HEK293 cells): 68 MFI
binding result (hBTLA on HEK293 cells): no binding
MFI (hCD28 on HEK293 cells): 66 MFI
binding result (hCD28 on HEK293 cells): no binding
MFI (hICOS on HEK293 cells): 67 MFI
binding result (hICOS on HEK293 cells): no binding
MFI [5]: 3290 MFI
MFI (hPDL2 on HEK293 cells): 70 MFI
binding result (hPDL2 on HEK293 cells): no binding
IC50 [6]: 1.6 nM
SHP1 reporter IC50 [7]: 0.059 nM
SHP1 reporter IC50, Ratio Ab55h:Ipilimumab [7]: 4.5 fold
Ratio Ipilimumab:Ab55h of Kd [8]: 8.1 fold
Ratio Ipilimumab:Ab55h of Koff [8]: 1.3 fold
Ratio Ipilimumab:Ab55h of Kon [8]: 0.16 fold
Ratio Ipilimumab:Ab55h of IC50 [9]: 2.2 fold
IC50 [10]: 1.5 nM
B1: Ab55h (antibody, V domains shown)
VH: QVQLQESGPGLVKPSETLSLTCAVSGYSISGDYYWGWIRQPPGKGLEWIGSIYHSGYTYYNPSLKSRVTISVDTSKNQFSLKLSSVTAADTAVYYCARDSGWYVIAFDYWGQGTLVTVSS
VL: EIVMTQSPATLSVSPGERATLSCRASQSVSSNLAWYQEKPGQAPRLLIYGASTRATGIPARFSGSGSGTEFTLTISSLQSEDFAVYYCQQYNNWPPLTFGGGTKVEIK
notes: Human form, compared with an hIgG1 isotype control
